Assay [1] addresses Rs-AFP1 (Raphanus sativus antifungal protein 1) (Raphanus sativus).
For assay [2], the target named is Rs-AFP2 (Raphanus sativus antifungal protein 2) (Raphanus sativus).

The text below walks through data of patent US5824869.

chymotrypsin (enzyme): the antifungal activity on Fusarium culmorum after digestion with the protease in assay [1] and in assay [2] was 10 fold in each case.

Turning to pronase E (enzyme), the antifungal activity on Fusarium culmorum after digestion with the protease in assay [1] and in assay [2] was 10 fold throughout.

With “proteinase K (from UniProt P06873) (enzyme)”, the antifungal activity on Fusarium culmorum after digestion with the protease in assay [1] and in assay [2] was 10 fold throughout.

For the substance trypsin (enzyme), the antifungal activity on Fusarium culmorum after digestion with the protease in assay [1] and in assay [2] was 10 fold in each case.
